Measured values reported in article PMC2993962, “Identification of a Novel Binding Partner of Phospholipase Cβ1: Translin-Associated Factor X” (PLoS ONE, 2010).

B1: His-tagged translin-associated factor X (TRAX) (natural protein, human, UniProt Q99598 1-290, looked up)
chain: MSNKEGSGGFRKRKHDNFPHNQRREGKDVNSSSPVMLAFKSFQQELDARHDKYERLVKLSRDITVESKRTIFLLHRITSAPDMEDILTESEIKLDGVRQKIFQVAQELSGEDMHQFHRAITTGLQEYVEAVSFQHFIKTRSLISMDEINKQLIFTTEDNGKENKTPSSDAQDKQFGTWRLRVTPVDYLLGVADLTGELMRMCINSVGNGDIDTPFEVSQFLRQVYDGFSFIGNTGPYEVSKKLYTLKQSLAKVENACYALKVRGSEIPKHMLADVFSVKTEMIDQEEGIS
notes: translin-associated factor X (TRAX), human cDNA from Open Biosystems cloned into pET32a; pET32a may also add thioredoxin and an S tag, depending on the cloning sites (surmise); source: Rosetta cells (pET32a), purified on a Ni-NTA column
B2: His6-PLCβ1 (phospholipase Cβ1), full length enzyme (enzyme, rat, UniProt P10687 1-1216, looked up)
chain: MAGAQPGVHALQLKPVCVSDSLKKGTKFVKWDDDSTIVTPIILRTDPQGFFFYWTDQNKETELLDLSLVKDARCGKHAKAPKDPKLRELLDVGNIGHLEQRMITVVYGPDLVNISHLNLVAFQEEVAKEWTNEVFSLATNLLAQNMSRDAFLEKAYTKLKLQVTPEGRIPLKNIYRLFSADRKRVETALEACSLPSSRNDSIPQEDFTPDVYRVFLNNLCPRPEIDNIFSEFGAKSKPYLTVDQMMDFINLKQRDPRLNEILYPPLKQEQVQVLIEKYEPNSSLAKKGQMSVDGFMRYLSGEENGVVSPEKLDLNEDMSQPLSHYFINSSHNTYLTAGQLAGNSSVEMYRQVLLSGCRCVELDCWKGRTAEEEPVITHGFTMTTEISFKEVIEAIAECAFKTSPFPILLSFENHVDSPKQQAKMAEYCRLIFGDALLMEPLEKYPLESGVPLPSPMDLMYKILVKNKKKSHKSSEGSGKKKLSEQASNTYSDSSSVFEPSSPGAGEADTESDDDDDDDDCKKSSMDEGTAGSEAMATEEMSNLVNYIQPVKFESFETSKKRNKSFEMSSFVETKGLEQLTKSPVEFVEYNKMQLSRIYPKGTRVDSSNYMPQLFWNAGCQMVALNFQTVDLAMQINMGMYEYNGKSGYRLKPEFMRRPDKHFDPFTEGIVDGIVANTLSVKIISGQFLSDKKVGTYVEVDMFGLPVDTRRKAFKTKTSQGNAVNPVWEEEPIVFKKVVLPSLACLRIAAYEEGGKFIGHRILPVQAIRPGYHYICLRNERNQPLMLPAVFVYIEVKDYVPDTYADVIEALSNPIRYVNLMEQRAKQLAALTLEDEEEVKKEADPGETSSEAPSETRTTPAENGVNHTATLAPKPPSQAPHSQPAPGSVKAPAKTEDLIQSVLTEVEAQTIEELKQQKSFVKLQKKHYKEMKDLVKRHHKKTTELIKEHTTKYNEIQNDYLRRRAALEKSAKKDSKKKSEPSSPDHGSSAIEQDLAALDAEMTQKLIDLKDKQQQQLLNLRQEQYYSEKYQKREHIKLLIQKLTDVAEECQNNQLKKLKEICEKEKKELKKKMDKKRQEKITEAKSKDKSQMEEEKTEMIRSYIQEVVQYIKRLEEAQSKRQEKLVEKHKEIRQQILDEKPKLQMELEQEYQDKFKRLPLEILEFVQEAMKGKVSEDSNHGSAPPSLASDPAKVNLKSPSSEEVQGENAGREFDTPL
modifications: thiol-reactive probe CPM, ~1:1 probe:protein, in the titrations with TRAX (CPM-PLCβ1); unlabelled when added to CPM-Gαq
notes: phospholipase Cβ1, rat, full length enzyme; also called CPM-PLCβ1; His-tagged PLCβ1; source: Sf9 cells, purified
B3: Gαq (natural protein, rat, UniProt P82471 1-359, looked up)
chain: MTLESIMACCLSEEAKEARRINDEIERQLRRDKRDARRELKLLLLGTGESGKSTFIKQMRIIHGSGYSDEDKRGFTKLVYQNIFTAMQAMVRAMDTLKIPYKYEHNKAHAQLVREVDVEKVSAFENPYVDAIKSLWNDPGIQECYDRRREYQLSDSTKYYLNDLDRVADPSYLPTQQDVLRVRVPTTGIIEYPFDLQSVIFRMVDVGGQRSERRKWIHCFENVTSIMFLVALSEYDQVLVESDNENRMEESKALFRTIITYPWFQNSSVILFLNKKDLLEEKIMYSHLVDYFPEYDGPQRDAQAAREFILKMFVDLNPDSDKIIYSHFTCATDTENIRFVFAAVKDTILQLNLKEYNLV
modifications: thiol-reactive probe CPM, ~1:1 probe:protein (in the binding titrations)
notes: G protein alpha subunit q (Gαq), rat; the nucleotide state is told by the assay; The sentence of the methods leaves open whether Gαq carried a His tag; also called CPM-Gαq(GTPγS); Gαq-GTPγS; source: Sf9 cells, purified

Columns and labels:
[1] = biological target: Gαq (UniProt P21279); settings: cited from earlier work
[2] = biological target: B2; experiment: other fluorescence titration; 2 nM CPM-labelled PLCβ1 (full length or ΔC) in solution, unlabelled TRAX added stepwise; increase of CPM intensity (excitation 380 nm, emission 420-560 nm) fitted to a bimolecular dissociation constant; apparent; settings: both partners purified
[3] = biological target: B3; experiment: other fluorescence titration; 2 nM CPM-Gαq activated with GTPγS on large unilamellar vesicles of POPC:POPS:POPE (1:1:1); PLCβ1 added; without and with excess TRAX (300 nM in the text, 200 nM in the legend); settings: both partners purified
[4] = biological target: B2; experiment: as above; settings: both partners purified

For PLCβ1 (from UniProt Q9NQ66), the Kd [1] is listed as 0.67 nM.

B1 gave a Kd [2] of 8 nM.

For B2, the “fold reduction of binding affinity in the presence of excess TRAX” value [3] was 3 fold.

B3: binds [4].
